Laboratory results from PMC3276087 (Journal of Experimental Botany, 2011).
Where a chain is given by its changes, count along the chain named. Names and notes keep the numbering of the source.

B1: His-tagged ACA8 N-terminus, wild type (6His-1M-I116) (domain or fragment)
chain: MTSLLKSSPGRRRGGDVESGKSEHADSDSDTFYIPSKNASIERLQQWRKAALVLNASRRFRYTLDLKKEQETREMRQKIRSHAHALLAANRFMDMGRESGVEKTTGPATPAGDFGI
B2: His-tagged ACA8 N-terminus S19D (6His-1M-I116) (domain or fragment)
chain: B1 chain with S19D
B3: His-tagged ACA8 N-terminus S22D (6His-1M-I116) (domain or fragment)
chain: B1 chain with S22D
B4: His-tagged ACA8 N-terminus S27D (6His-1M-I116) (domain or fragment)
chain: B1 chain with S27D
B5: His-tagged ACA8 N-terminus S57D (6His-1M-I116) (domain or fragment)
chain: B1 chain with S57D
B6: His-tagged ACA8 N-terminus S99D (6His-1M-I116) (domain or fragment)
chain: B1 chain with S99D
B7: His-tagged ACA8 N-terminus S29D (6His-1M-I116) (domain or fragment)
chain: B1 chain with S29D

What follows are binders tested against bovine testes calmodulin (bovine, UniProt P62157 1-149) (assay: SPR).
B1 was tested, and the Kd was 19.3 nM, the koff was 0.00244 s⁻¹ and the kon was 127000 M⁻¹ s⁻¹.
Binder B2 has a Kd of 14.5 nM, a koff of 0.00325 s⁻¹ and a kon of 224000 M⁻¹ s⁻¹.
B3 was tested, and the Kd was 23.9 nM, the koff was 0.00139 s⁻¹ and the kon was 58000 M⁻¹ s⁻¹.
In the case of B4, the Kd is reported as 26.5 nM, the koff is reported as 0.0052 s⁻¹ and the kon is reported as 196000 M⁻¹ s⁻¹.
For B5, the Kd was 165 nM, the koff was 0.0255 s⁻¹ and the kon was 154000 M⁻¹ s⁻¹.
Binder B6 has a Kd of 11.3 nM, a koff of 0.00137 s⁻¹ and a kon of 121000 M⁻¹ s⁻¹.
B7 showed a Kd of 22.3 nM, a koff of 0.00382 s⁻¹ and a kon of 171000 M⁻¹ s⁻¹.
